Assay results taken from article PMC5993042.

Target: estrogen receptor α (as used in the TR-FRET assay) (UniProt P03372)
Test: FRET or BRET

estrogen receptor α (as used in the TR-FRET assay), sequence (P03372 311-547): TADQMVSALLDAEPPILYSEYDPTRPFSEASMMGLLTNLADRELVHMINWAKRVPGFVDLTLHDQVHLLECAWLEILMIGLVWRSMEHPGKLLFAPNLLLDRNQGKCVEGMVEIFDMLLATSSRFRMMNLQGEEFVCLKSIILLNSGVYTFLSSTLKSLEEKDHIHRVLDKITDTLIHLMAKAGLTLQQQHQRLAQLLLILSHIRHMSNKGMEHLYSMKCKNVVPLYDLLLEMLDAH

In the case of SRC2-WT (peptide), the IC50 is reported as 1100 nM.
